Source: doi:10.1101/2023.08.08.552518

Target: human alpha-thrombin (human, UniProt P00734;P00734 328-363;364-622)
Assay: BLI

Row | Binder | Kd
1 | TCACTGTGGTTGGTGTGGTTGGTTTTTTTTTTTTACAGTG (structured_DNA) [ISD-Bt] | 246 nM
2 | GGTTGGTGTGGTTGG (structured_DNA) [TBA-Bt] | 114 nM
